# B1: SUV39H1(82-412)-GST protein (protein)
# chain: CVRILKQFHKDLERELLRRHHRSKTPRHLDPSLANYLVQKAKQRRALRRWEQELNAKRSHLGRITVENEVDLDGPPRAFVYINEYRVGEGITLNQVAVGCECQDCLWAPTGGCCPGASLHKFAYNDQGQVRLRAGLPIYECNSRCRCGYDCPNRVVQKGIRYDLCIFRTDDGRGWGVRTLEKIRKNSFVMEYVGEIITSEEAERRGQIYDRQGATYLFDLDYVEDVYTVDAAYYGNISHFVNHSCDPNLQVYNVFIDNLDERLPRIAFFATRTIRAGEELTFDYNMQVDPVDMESTRMDSNFGLAGLPGSPKKRVRIECKCGTESCRKYLF
# Target: biotinylated H3 peptide (first 21 amino acids of Histone H3 with a Biotin label on the CO2H terminus, Upstate Biotechnology), P68431
protein,measurement,value
B1,"Histone methyl transferase activity (radioactive assay, 14C labelled methylated H3 peptide)",Histone methyl transferase activity of truncated protein was confirmed by radioactive assay
